Measured values reported in publication PMC1802081.
Substitutions are numbered along the chain they refer to. Names and notes keep the numbering of the source.

B1: BMPR-II receptor ectodomain (receptor)
chain: SQNQERLCAFKDPYQQDLGIGESRISHENGTILCSKGSTCYGLWEKSKGDINLVKQGCWSHIGDPQECHYEECVVTTTPPSIQNGTYRFCCCSTDLCNVNFTENFPPPDTTPLSPPHSFNRDET
B2: ActR-IIBECD wildtype (activin type IIB receptor ectodomain) (receptor)
chain: SGRGEAETRECIYYNANWELERTNQSGLERCEGEQDKRLHCYASWRNSSGTIELVKKGCWLDDFNCYDRQECVATEENPQVYFCCCEGNFCNERFTHLPEPGGPEVTYEPPPTAPTLLT
B3: ActR-IIBECD L61A (receptor)
chain: B2 chain with L61A
B4: ActR-IIBECD L61P (receptor)
chain: B2 chain with L61P

Experiments:
Test in all cases: SPR; BIACORE 2000; biotinylated ligand on a streptavidin-modified CM5 chip (about 200 RU); receptor ectodomain as analyte at 1, 2, 3, 5, 10, 20 and 50 uM; HBS500 (10 mM HEPES pH 7.4, 500 mM NaCl, 3.4 mM EDTA, 0.005% P20); apparent KD from the dose dependence of equilibrium binding
[1] = molecular target: BMP-2 A86P
[2] = molecular target: BMP-2 variant L100K/N102D
[3] = molecular target: BMP-2 S85R
[4] = molecular target: BMP-2 L100K
[5] = molecular target: BMP-2 S85R/A86P
[6] = molecular target: BMP-2 N102D

rel. KD (against wildtype BMP-2 from E. coli with the same receptor) [1] [fold]	rel. KD (against wildtype BMP-2 from E. coli with the same receptor) [2] [fold]	rel. KD (against wildtype BMP-2 from E. coli with the same receptor) [3] [fold]	rel. KD (against wildtype BMP-2 from E. coli with the same receptor) [4] [fold]	rel. KD (against wildtype BMP-2 from E. coli with the same receptor) [5] [fold]	rel. KD (against wildtype BMP-2 from E. coli with the same receptor) [6] [fold]	Kd [2] [µM]	Binder
0.5	0.92	0.12	1.3	0.19	0.96		B1
2.6		1.3	0.15	1.4	7.8	0.14	B2
						14	B3
						160	B4
